One substance from patent US20150297680A1 can be followed below.

This test concerns the target human serum albumin (HSA) (human) (UniProt P02768). As to the kind of experiment: HSA-coupled agarose beads, washed with PBS, fluorescence plate reader (ex 480 nm, em 510 nm).
UniProt P02768, sequence (P02768 25-609 limits assumed): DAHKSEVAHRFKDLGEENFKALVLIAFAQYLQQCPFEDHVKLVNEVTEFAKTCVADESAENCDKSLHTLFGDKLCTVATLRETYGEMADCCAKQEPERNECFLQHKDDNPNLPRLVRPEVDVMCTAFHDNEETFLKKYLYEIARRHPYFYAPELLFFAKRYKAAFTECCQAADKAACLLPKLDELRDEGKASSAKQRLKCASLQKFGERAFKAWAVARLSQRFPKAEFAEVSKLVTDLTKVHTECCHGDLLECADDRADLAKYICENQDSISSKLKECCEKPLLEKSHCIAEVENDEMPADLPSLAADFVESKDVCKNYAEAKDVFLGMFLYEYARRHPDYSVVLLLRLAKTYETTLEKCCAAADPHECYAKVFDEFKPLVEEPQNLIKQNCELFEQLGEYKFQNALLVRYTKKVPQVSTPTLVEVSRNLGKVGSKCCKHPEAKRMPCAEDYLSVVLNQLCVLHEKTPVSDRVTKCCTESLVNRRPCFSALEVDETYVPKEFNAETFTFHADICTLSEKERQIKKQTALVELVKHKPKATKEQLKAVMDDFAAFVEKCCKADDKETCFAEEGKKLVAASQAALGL

“palmitic acid-conjugated superfolder green fluorescent protein (sfGFP-Pal)” came in with a fold fluorescence of HSA-coupled beads against those with sfGFP-WT of 20 fold.
